Laboratory results published in patent US20200317817A1 (XOMA US, published 2020).

T1: human PTH1R overexpressed on Saos-2 cells (human, UniProt Q03431 27-593)
T1 construct: whole, on cells; also called Saos-2 human PTH1R cells
T1 sequence (looked up): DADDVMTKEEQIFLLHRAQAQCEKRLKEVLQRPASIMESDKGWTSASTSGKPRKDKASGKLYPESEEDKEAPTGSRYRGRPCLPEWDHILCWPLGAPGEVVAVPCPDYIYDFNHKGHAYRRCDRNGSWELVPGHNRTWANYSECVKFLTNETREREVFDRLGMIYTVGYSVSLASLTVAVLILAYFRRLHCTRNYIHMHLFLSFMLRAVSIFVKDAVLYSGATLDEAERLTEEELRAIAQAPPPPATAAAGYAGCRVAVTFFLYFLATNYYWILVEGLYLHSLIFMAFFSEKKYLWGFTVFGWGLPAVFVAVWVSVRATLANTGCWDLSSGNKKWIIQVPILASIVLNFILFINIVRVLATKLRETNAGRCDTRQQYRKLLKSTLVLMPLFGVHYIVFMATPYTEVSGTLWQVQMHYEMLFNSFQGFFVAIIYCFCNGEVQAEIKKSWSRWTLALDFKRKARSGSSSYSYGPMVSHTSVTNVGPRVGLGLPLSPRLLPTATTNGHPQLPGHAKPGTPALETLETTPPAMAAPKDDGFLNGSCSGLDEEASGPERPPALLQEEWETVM

T2: human PTH1R overexpressed on CHO cells (human, UniProt Q03431 27-593)
T2 sequence (looked up): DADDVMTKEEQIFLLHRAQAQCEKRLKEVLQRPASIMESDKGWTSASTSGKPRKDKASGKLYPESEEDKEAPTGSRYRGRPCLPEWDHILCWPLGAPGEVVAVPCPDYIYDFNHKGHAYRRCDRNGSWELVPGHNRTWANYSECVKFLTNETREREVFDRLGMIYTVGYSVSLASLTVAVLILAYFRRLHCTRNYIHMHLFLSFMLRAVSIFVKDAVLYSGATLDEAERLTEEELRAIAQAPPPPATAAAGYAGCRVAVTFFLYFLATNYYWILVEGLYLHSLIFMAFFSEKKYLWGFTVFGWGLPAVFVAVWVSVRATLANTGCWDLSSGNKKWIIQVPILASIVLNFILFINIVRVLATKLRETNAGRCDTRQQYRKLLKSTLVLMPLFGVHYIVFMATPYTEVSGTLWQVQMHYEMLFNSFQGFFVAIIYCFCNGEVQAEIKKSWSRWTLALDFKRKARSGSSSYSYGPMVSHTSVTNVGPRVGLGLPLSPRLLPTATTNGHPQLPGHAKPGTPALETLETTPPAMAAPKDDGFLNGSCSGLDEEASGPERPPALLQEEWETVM

T3: mouse PTH1R overexpressed on CHO cells (mouse, UniProt P41593 27-591)
T3 sequence (looked up): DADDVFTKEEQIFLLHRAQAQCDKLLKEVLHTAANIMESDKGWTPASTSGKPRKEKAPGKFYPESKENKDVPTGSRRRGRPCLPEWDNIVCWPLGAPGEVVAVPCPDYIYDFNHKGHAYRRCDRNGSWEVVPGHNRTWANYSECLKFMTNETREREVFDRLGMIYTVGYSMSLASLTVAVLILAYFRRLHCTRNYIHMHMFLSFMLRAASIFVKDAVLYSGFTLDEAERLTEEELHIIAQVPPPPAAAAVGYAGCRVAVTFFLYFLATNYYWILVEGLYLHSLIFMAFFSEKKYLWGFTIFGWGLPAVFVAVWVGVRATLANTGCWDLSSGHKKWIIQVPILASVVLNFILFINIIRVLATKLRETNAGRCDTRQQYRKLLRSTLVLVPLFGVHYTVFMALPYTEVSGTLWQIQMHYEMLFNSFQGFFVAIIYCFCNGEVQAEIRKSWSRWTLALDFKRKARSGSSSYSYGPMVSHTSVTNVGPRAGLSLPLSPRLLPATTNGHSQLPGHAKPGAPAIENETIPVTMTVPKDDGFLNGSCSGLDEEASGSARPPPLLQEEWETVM

T4: human PTH1R on Saos-2 cells (endogenous) (human, UniProt Q03431 27-593)
T4 sequence (looked up): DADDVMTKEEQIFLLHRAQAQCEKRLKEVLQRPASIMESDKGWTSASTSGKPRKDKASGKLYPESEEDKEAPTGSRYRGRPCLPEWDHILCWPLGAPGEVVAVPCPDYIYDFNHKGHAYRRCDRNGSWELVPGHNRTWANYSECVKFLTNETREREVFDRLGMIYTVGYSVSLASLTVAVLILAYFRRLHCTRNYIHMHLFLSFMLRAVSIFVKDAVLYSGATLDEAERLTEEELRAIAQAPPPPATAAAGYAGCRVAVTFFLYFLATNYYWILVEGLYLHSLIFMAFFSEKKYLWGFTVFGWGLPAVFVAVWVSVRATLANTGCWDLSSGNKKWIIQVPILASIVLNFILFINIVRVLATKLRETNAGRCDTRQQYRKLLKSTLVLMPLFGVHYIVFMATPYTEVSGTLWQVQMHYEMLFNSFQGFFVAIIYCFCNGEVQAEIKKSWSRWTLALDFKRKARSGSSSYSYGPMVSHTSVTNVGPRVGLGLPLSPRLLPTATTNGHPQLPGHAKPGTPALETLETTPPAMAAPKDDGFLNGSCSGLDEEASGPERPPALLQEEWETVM

T5: recombinant N-terminal extracellular domain of the human PTH1R receptor (human, UniProt Q03431 27-188, limits assumed)
T5 construct: domain: N-terminal extracellular domain; Bought reagent; also called N-ECD PTH1R; PTH1R N-terminal ECD
T5 sequence (looked up): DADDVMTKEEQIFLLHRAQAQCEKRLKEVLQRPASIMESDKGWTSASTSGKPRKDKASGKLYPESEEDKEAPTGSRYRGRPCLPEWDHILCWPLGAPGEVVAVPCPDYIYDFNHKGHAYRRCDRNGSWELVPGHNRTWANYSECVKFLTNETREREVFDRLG

T6: rat PTH1R on UMR106 cells (rat, UniProt P25961 27-591)
T6 sequence (looked up): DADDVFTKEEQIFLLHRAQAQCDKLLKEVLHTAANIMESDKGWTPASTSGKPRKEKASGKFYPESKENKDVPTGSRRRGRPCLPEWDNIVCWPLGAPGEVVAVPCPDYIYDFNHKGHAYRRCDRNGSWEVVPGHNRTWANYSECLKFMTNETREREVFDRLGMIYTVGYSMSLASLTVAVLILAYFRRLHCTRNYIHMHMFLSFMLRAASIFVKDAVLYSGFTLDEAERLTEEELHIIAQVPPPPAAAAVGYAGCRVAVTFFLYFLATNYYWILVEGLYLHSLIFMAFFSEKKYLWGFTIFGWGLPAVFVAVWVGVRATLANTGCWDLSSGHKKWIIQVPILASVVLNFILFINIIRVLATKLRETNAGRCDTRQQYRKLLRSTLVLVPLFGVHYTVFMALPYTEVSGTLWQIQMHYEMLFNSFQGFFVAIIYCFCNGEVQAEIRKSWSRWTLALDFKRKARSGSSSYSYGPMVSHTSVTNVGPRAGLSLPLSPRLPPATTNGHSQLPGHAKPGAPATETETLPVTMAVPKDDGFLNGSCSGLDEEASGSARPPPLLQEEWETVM


Legend:
[1] = molecular target: T1, human PTH1R overexpressed on Saos-2 …; experiment: flow cytometry on Saos-2 cells overexpressing human PTH1R, in the presence of 1 uM PTH, PE anti-human IgG
[2] = molecular target: T2, human PTH1R overexpressed on CHO cells; experiment: cell-based or functional assay
[3] = molecular target: T3, mouse PTH1R overexpressed on CHO cells; experiment: cell-based or functional assay
[4] = molecular target: T1, human PTH1R overexpressed on Saos-2 …; experiment: flow cytometry on Saos-2 cells overexpressing human PTH1R, in the presence of 3 uM PTHrP, PE anti-human IgG
[5] = molecular target: T4, human PTH1R on Saos-2 cells (endogenous); experiment: cell-based or functional assay
[6] = molecular target: T5, recombinant N-terminal extracellular …; experiment: SPR, IgG captured, ECD injected
Procedure, shortened: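 Antibodies (0.5 μg/mL) captured on anti-human IgG-Fc chip to 100–200 RU in HBS-EP+ with 2.5 mg/mL BSA; receptor ECD injected at 30 μL/minute for 240 s, 360 s dissociation, 3M MgCl regeneration. Double-referenced data fit globally for ka and kd; KD=kd/kₐ.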

[7] = molecular target: T7, human PTH2R overexpressed on CHO cells (human, UniProt P49190 25-550); experiment: flow cytometry on CHO cells overexpressing human PTH2R, 1 hr at 4 C, APC anti-human IgG
T7 construct: whole, on cells; also called CHO human PTH2R
T7 sequence (P49190 25-550): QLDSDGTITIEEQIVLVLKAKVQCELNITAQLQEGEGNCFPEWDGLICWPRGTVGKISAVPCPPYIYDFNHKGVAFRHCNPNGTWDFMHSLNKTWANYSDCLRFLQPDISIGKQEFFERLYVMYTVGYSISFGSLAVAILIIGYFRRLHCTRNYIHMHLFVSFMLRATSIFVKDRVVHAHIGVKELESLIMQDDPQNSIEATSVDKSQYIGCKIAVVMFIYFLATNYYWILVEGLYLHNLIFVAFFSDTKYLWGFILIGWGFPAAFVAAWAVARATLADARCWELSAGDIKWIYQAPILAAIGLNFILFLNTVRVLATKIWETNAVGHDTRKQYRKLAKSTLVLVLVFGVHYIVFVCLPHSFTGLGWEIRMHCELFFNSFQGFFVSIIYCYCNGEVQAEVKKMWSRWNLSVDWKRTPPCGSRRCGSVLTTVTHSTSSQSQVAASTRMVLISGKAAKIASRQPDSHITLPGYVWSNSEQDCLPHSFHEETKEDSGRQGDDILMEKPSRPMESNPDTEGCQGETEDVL
Experimental: Increasing concentrations of anti-PTH1R antibodies were added to CHO cells overexpressing human PTH2R and incubated for 1 hr at 4° C. (FIG. 8). Cells were washed twice with FACS Buffer and antibody binding was detected with anti-human IgG APC. […] Anti-KLH.G2 was used a negative control for binding.
PTH2R has a 51% homology to PTH1R. […] Following two washes, cells were incubated with Allophycocyanin (APC) AffiniPure F(ab′)₂ Fragment Goat Anti-Human IgG (H+L) (Jackson ImmunoResearch, West Grove, Pa.) for 20 minutes at 4° C. Cells were washed twice and resuspended in FACS Buffer. Samples were acquired using BD Cytometer (BD Biosciences, San Jose, Calif.) and data were analyzed using FlowJo (FlowJo, LLC, Ashland, Oreg.) and Prism (GraphPad Software, La Jolla, Calif.). […] Anti-KLH.G2 was used a negative control for binding.

[8] = molecular target: T1, human PTH1R overexpressed on Saos-2 …; experiment: flow cytometry on Saos-2 cells overexpressing human PTH1R, antibody alone, PE anti-human IgG
[9] = molecular target: T4, human PTH1R on Saos-2 cells (endogenous); experiment: cell-based or functional assay; remark: listed apart in the source
[10] = molecular target: T6, rat PTH1R on UMR106 cells; experiment: cell-based or functional assay
[11] = molecular target: T1, human PTH1R overexpressed on Saos-2 …; experiment: flow cytometry on Saos-2 cells overexpressing human PTH1R, antibody alone, PE anti-human IgG; remark: listed apart in the source
[12] = molecular target: T1, human PTH1R overexpressed on Saos-2 …; experiment: flow cytometry on Saos-2 cells overexpressing human PTH1R, in the presence of 1 uM PTH, PE anti-human IgG; remark: listed apart in the source
[13] = molecular target: T1, human PTH1R overexpressed on Saos-2 …; experiment: flow cytometry on Saos-2 cells overexpressing human PTH1R, in the presence of 3 uM PTHrP, PE anti-human IgG; remark: listed apart in the source
Text: Antibody binding was detected with R-Phycoerythrin anti-human IgG.

| EC50 [1] [nM] | IC50, inhibition of PTH(1-34)-induced cAMP accumulation [2] [nM] | IC50, inhibition of PTHrP(1-34)-induced cAMP accumulation [2] [nM] | IC50, inhibition of PTHrP(1-34)-induced cAMP accumulation [3] [nM] | EC50 [4] [nM] | EC50 of antibody, neutralization of M-CSF production induced by 12.5 nM PTHrP (1-36) [5] [nM] | fold shift of the PTHrP (1-36) dose response, M-CSF secretion by Saos-2 cells, 40 µg/mL antibody [5] [fold] | Kd [6] [nM] | koff [6] [s⁻¹] | kon [6] [M⁻¹ s⁻¹] | binding result [7] | EC50 [8] [nM] | % inhibition of cAMP accumulation at 1 µM PTH(1-34), 267 nM IgG [9] [%] | % inhibition of cAMP accumulation at 1 µM PTHrP(1-34), 267 nM IgG [9] [%] | % inhibition of cAMP accumulation at 1 µM PTH(1-34), 267 nM IgG [10] [%] | % inhibition of cAMP accumulation at 1 µM PTHrP(1-34), 267 nM IgG [10] [%] | EC50 [11] [nM] | EC50 [12] [nM] | EC50 [13] [nM] | Binder |
| --- | --- | --- | --- | --- | --- | --- | --- | --- | --- | --- | --- | --- | --- | --- | --- | --- | --- | --- | --- |
| 21.7 | 10.6 | 8.23 | 2.82 | 193 | 1.5 | > 200 | 0.19 | 9e-05 | 470000 | no binding (tested: about 160 nM) | 3.67 | 85 | 89 | 55 | 56 |  |  |  | XPA.85.330 (antibody, V domains shown, IgG; also called Ab330) VH: QMQLVQSGAEVKKPGSSVKVSCKASGGTFSSYAISWVRQAPGQGLEWMGGIIPIFGTANYAQKFQGRVTITADESTSTAYMELSSLRSEDTAVYYCARGYVVARLWGQGTLVTVSS VL: DIVMTQTPLSLSVTPGQPASISCKSSQSLLHIDGNTYLYWYLQRPGQPPQLLIYEISNRFSGVPDRFSGSGSGTDFTLKISRVEAEDVGVYYCMQSLHFPITFGQGTRLEIK |
|  | 11.8 | 7.06 | 2.23 |  | 6.6 | > 200 | 0.32 | 0.00018 | 560000 | no binding (tested: about 160 nM) |  |  |  |  |  | 4.4 | 67.4 | 465 | XPA.85.328 (antibody, V domains shown, IgG; also called Ab328) VH: QMQLVQSGAEVKKPGSSVKVSCKASGGTFSSYAISWVRQAPGQGLEWMGGIIPIFGTANYAQKFQGRVTITADESTSTAYMELSSLRSEDTAVYYCARGYVVARLWGQGTLVTVSS VL: DVVMTQTPLSLSVTPGQPASISCKSSQSLLHIDGKTYLYWYLQKSGQSPQLLIYEVSNRFSGVPDTFSGSGSGTDFTLKISRVEAEDVGVYYCMQSLHFPITFGQGTRLEIK |
